Results reported in patent US20150111822A1 (OTTAWA HOSPITAL RESEARCH INSTITUTE, published 2015).

Target: T1, endogenous Fzd7 on activated mouse satellite cells (mouse, UniProt Q61090 33-572)
T1 construct: whole, on cells; also called Frizzled7; Wnt7a receptor Fzd7
Assay: in-situ proximity ligation assay (PLA) on activated satellite cells on cultured myofibers; signal abolished by siSdc4
Method: A) Co-IP of Sdc4 with the Wnt7a receptor Fzd7 from satellite cell derived primary myoblasts overexpressing (OE) Fzd7-Flag and Sdc4-YFP. Co-IP was performed with an anti-YFP antibody or with an IgG control. B) Proximity ligation assay (PLA) of Sdc4 and Fzd7 in activated satellite cells after 42 hours of fiber culture. […] Scale bar=5 μm. C) Proximity ligation assay (PLA) of Sdc4 and FN in activated satellite cells after 42 hours of fiber culture. […] Scale bar=5 μm. D) Co-IP of Fzd7 with FN from satellite cell derived primary myoblasts overexpressing (OE) Fzd7-Flag and FN. Co-IP was performed with an anti-YFP antibody. siRNA knockdown of endogenous Sdc4 (siSdc4) prevented Co-IP of FN with Fzd7 when compared to siSCR. E) Co-IP of Sdc4 with Wnt7a from satellite cell derived primary myoblasts that overexpress (OE) Sdc4-YFP and Wnt7a-HA. Co-IP was performed with an anti-flag antibody. siRNA knockdown of endogenous Fzd7 prevented Co-IP of Sdc4 with Wnt7a. F) Rac1 activation assay. Total Rac1 is shown as a loading control. Densitometric quantification represents average grey values±SEM after subtraction of the background and normalization to total Rac1. The average grey value obtained for empty vector (EV) was set to 100%, n=3, p values are ***p<0.001, **p<0.01, *p<0.05.
Mouse Fzd7 immunoprecipitated with mouse Sdc4 in mammalian myogenic cells. […]

B1: endogenous Syndecan 4 (Sdc4) on mouse satellite cells and primary myoblasts (receptor, UniProt O35988 24-198, looked up)
chain: ESIRETEVIDPQDLLEGRYFSGALPDDEDAGGSDDFELSGSGDLDDTEEPRPFPEVIEPLVPLDNHIPENAQPGIRVPSEPKELEENEVIPKRAPSDVGDDMSNKVSMSSTAQGSNIFERTEVLAALIVGGVVGILFAVFLILLLVYRMKKKDEGSYDLGKKPIYKKAPTNEFYA
notes: whole, on cells; also called FN receptor Sdc4
  binding result: binds
